Several values for one entry are separate records, joined by “and”; a condition that tells them apart may be missing. Equal entries are not always repeated.
Legend:
[1] = target: B-cell lymphoma extra-large protein (Bcl-xL), first 209 amino acids with N-terminal avitag (UniProt Q07817); experiment: equilibrium AMMP, divalent model
[2] = target: B-cell lymphoma extra-large protein (Bcl-xL), first 209 amino acids with N-terminal avitag (UniProt Q07817); experiment: equilibrium ELISA, divalent model
[3] = target: B-cell lymphoma extra-large protein (Bcl-xL), first 209 amino acids with N-terminal avitag (UniProt Q07817); experiment: forward equilibrium assay, Kd-only fit, divalent model
[4] = target: B-cell lymphoma extra-large protein (Bcl-xL), first 209 amino acids with N-terminal avitag (UniProt Q07817); experiment: forward equilibrium assay, Kd-only fit, monovalent model (said to fit poorly)
[5] = target: B-cell lymphoma extra-large protein (Bcl-xL), first 209 amino acids with N-terminal avitag (UniProt Q07817); experiment: forward equilibrium assay, Kd and [L]0 fit simultaneously, monovalent and divalent models
[6] = target: B-cell lymphoma extra-large protein (Bcl-xL), first 209 amino acids with N-terminal avitag (UniProt Q07817); experiment: Kd2 (monovalently bound mAb to a second Bcl-xL), divalent model, reverse assay only, known [L]0
[7] = target: B-cell lymphoma extra-large protein (Bcl-xL), first 209 amino acids with N-terminal avitag (UniProt Q07817); experiment: Kd1 (free mAb to Bcl-xL), divalent model, forward and reverse equilibrium assays combined, known [L]0
[8] = target: B-cell lymphoma extra-large protein (Bcl-xL), first 209 amino acids with N-terminal avitag (UniProt Q07817); experiment: Kd2 (monovalently bound mAb to a second Bcl-xL), divalent model, reverse assay only, Kd and [L]0 fit simultaneously
[9] = target: B-cell lymphoma extra-large protein (Bcl-xL), first 209 amino acids with N-terminal avitag (UniProt Q07817); experiment: Kd1 (free mAb to Bcl-xL), divalent model, forward and reverse equilibrium assays combined, Kd and [L]0 fit simultaneously
[10] = target: B-cell lymphoma extra-large protein (Bcl-xL), first 209 amino acids with N-terminal avitag (UniProt Q07817); experiment: reverse equilibrium assay, divalent model; percent of monovalently bound mAb that does not interact with immobilized Bcl-xL

B-cell lymphoma extra-large protein (Bcl-xL), first 209 amino acids with N-terminal avitag, sequence (Q07817 other isoform, or with tags, fused parts or gaps): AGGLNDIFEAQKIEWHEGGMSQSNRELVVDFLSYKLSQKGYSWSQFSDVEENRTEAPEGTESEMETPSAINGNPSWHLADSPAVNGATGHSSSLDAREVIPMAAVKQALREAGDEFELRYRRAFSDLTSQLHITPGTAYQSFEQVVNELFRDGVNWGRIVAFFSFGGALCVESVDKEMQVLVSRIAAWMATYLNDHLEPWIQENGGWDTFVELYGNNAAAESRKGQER

Kd [1]: 0.012 nM | Kd [2]: 0.02 nM | Kd [3]: 0.014 nM | Kd [4]: 0.038 nM | Kd [5]: 0.011 nM | Kd [6]: 3.3 nM | Kd [7]: 0.021 nM | Kd [8]: 4 nM | Kd [9]: 0.019 nM | percent of monovalently bound mAb not interacting with immobilized Bcl-xL [10]: 74% and 73%
Substance: 54H6 monoclonal antibody against Bcl-xL (commercial)
